Results reported in the MegaScale stability set (Tsuboyama et al. 2023).

B1: 6NMW (parent)
chain: QGDIVVALYPYDGIHPDDLSFKKGEKMKVLEEHGEWWKAKSLLTKKEGFIPSNYVAKLN
B2: HEEH_KT_rd6_3632 (parent)
chain: DAEELIELVERALKEGREIILLGVRITSEEAGKWFIEWIRRFL

Variants of: B1
Test: folding stability dG (cDNA display proteolysis); higher = more stable
Conditions: PBS, room temperature

Variant	folding stability dG [kcal/mol]
T44Q	1.26
D18F	4.07
K45M	4.29
E32K	4.72
E32I	4.6
E32P	2.54
E32M	4.65
K46I	2.34
K46G	2.14
L43P	0.475
L43R	3.66
P16R	2.87
G13P	2.3
G13N	1.32
G13L	0.825
L19S	-0.898
Q1M	3.74
Q1T	4.18
S20R	2.23
S20C	2.77
L58E	2.77
L58H	2.43
I14Y	3.08
N53C	4.41

Variant	folding stability dG [kcal/mol]
N53F	3.06
N53T	3.74
H33P	1.43
H33F	3.74
V6H	1.5
V6L	2.18
V6K	1.52
K28F	3.91
K28G	1.31
G34K	1.84
G34I	1.4
G48W	-0.877
G48F	0.034
V29Y	0.219
V29P	0.224
V29T	0.988
F21L	-0.236
V55I	2.12
E25A	1.21
K57S	2.94
K57Q	2.68
K23S	2.34
K23H	1.85
K23E	2.88

Variant	folding stability dG [kcal/mol]
I4F	2.76
I4N	0.755
I4Y	2.98
N59S	4.06
N59K	3.53
N59A	3.8
G2T	3.29
G2K	2.9
G2Y	3.95
L42P	-0.897
L42D	0.832
L42Y	2.14
Y54D	-0.435
A56R	4.18
K40E	2.86
Y11C	1.5
Y11F	3.93
Y11I	0.264
H15P	3.63
H15M	2.85
E35A	4.01
E35M	4.06
F49V	2.3
F49M	4.22

Variant	folding stability dG [kcal/mol]
F49H	1.88
E31G	2.77
K26P	2.39
L30G	0.263
L30H	0.943
V5T	0.383
V5K	-0.356
V5H	1.41
P51Q	1.09
P51E	0.647
K22Y	2.29
Y9F	3.72
E47M	3.2
A7S	1.39
A7M	0.441
D12I	4.38
S52C	3.84
S41M	1.38
I50V	2.59
I50C	0.571
I50L	1.58
D3E	3.77

Variants of: B2
Test: as above
Conditions: PBS, room temperature

Variant	folding stability dG [kcal/mol]
R40K	3.69
R40S	3.27
R40H	3.32
R40F	3.87
R40E	2.85
R40L	3.83
R40T	3.46
R40C	4.03
R40N	3.14
R40V	3.48
R40M	3.89
R40Y	3.69
R40G	3.04
R40P	2.68
R40I	3.77
R40D	2.87
R40W	3.85
R40Q	3.32
F42N	3.19
F42E	2.91
F42T	3.35
F42M	3.76
F42D	2.51
F42Q	3.29
F42G	3.06

Variant	folding stability dG [kcal/mol]
F42L	3.73
F42W	4.07
F42S	3.15
F42A	3.21
F42K	3.15
F42V	3.58
F42I	3.67
F42R	3.29
F42H	3.45
F42P	2.5
F42Y	3.72
L43E	2.91
L43P	2.62
L43K	3.09
L43V	3.48
L43T	3.24
L43S	3.17
L43H	3.17
L43Y	3.81
L43R	3.03
L43A	3.35
L43M	3.81
L43I	3.61
L43G	3.03
L43N	2.97

Variant	folding stability dG [kcal/mol]
L43F	4.01
L43Q	3.22
L43W	3.89
L43D	2.75
R41G	3.45
R41P	2.84
R41A	3.62
R41V	3.7
R41Q	3.6
R41Y	3.81
R41H	3.64
R41D	3.05
R41N	3.57
R41L	3.81
R41S	3.72
R41F	3.95
R41E	3.37
R41M	3.93
R41I	3.74
R41T	3.63
R41C	4.34
R41K	3.76
R41W	4.14
